According to US20060122099A1, “Method for infusing insulin to a subject to improve impaired total body tissue glucose processing” (priority 2004, published 2006):

Columns and labels:
[1] = stated without source; cited from earlier work
[2] = Circulating glucose by finger stick during insulin pulse treatments; assay type: in vivo, human; conditions: during the first treatment, with ingested carbohydrates; all examples
Description: In prototype testing, a commercially available LIFESCAN ONETOUCH ULTRA glucose meter was used to measure the subject's baseline and subsequent circulating blood glucose level. The glucose meter was calibrated according to the manufacturer's recommendations. A blood sampler test strip was then inserted into the blood glucose meter as directed by the manufacturer. The glucose meter automatically turned on upon proper insertion of the test strip into the meter. This commercially available glucose meter utilized a lancet to prick the subject's fingertip or arm. After pricking the skin, the user gently massages the area to help form a round drop of blood (about one micro-liter in volume) on the skin surface. The subject then caused the blood sample to be absorbed onto the blood sampler test strip per the manufacturer's recommended procedure. If adequate blood was absorbed by the blood sampler test strip, the blood glucose level was automatically calculated and shown on the instrument's display panel in approximately 5 seconds. […]
For all of the above listed examples, after the initial few days of treatment, the patients underwent treatment once a week, each treatment day consisting of three infusions of insulin accompanied by ingestion of carbohydrates. […] The patients' circulating glucose were measured once every thirty minutes by the finger stick method currently used by most diabetic patients. […]

insulin
half-life [1]: 5 min
rise in circulating glucose levels [2]: 100 to 150 mg/dL
